In the supplement of paper PMC10567573:
± gives the standard deviation.

Test: protein stability index of a GFP-peptide fusion (GPS, HEK-293T) (PSI 1-6); higher = more stable
[1] = treatment: DMSO, c terminus: a fixed tail appended
[2] = treatment: MLN4924 1 uM, 8 h, c terminus: a fixed tail appended
[3] = treatment: DMSO, c terminus: native
[4] = treatment: MLN4924 1 uM, 8 h, c terminus: native
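Note: 24-mer peptide tiles fused after GFP, lentivirally expressed, FACS-sorted into six equal bins by GFP/DsRed ratio, decoded by Illumina sequencing, PSI is the read-weighted mean bin number.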

| Sequence | protein stability index [1] | protein stability index [2] | protein stability index [3] | protein stability index [4] |
| --- | --- | --- | --- | --- |
| KNRPAMNYDKLSRSIRQYYKKGII [SPDEF] | 2.46 ± 0.3 | 2.42 ± 0.48 |  |  |
| ANIEEVLQRGEALSALDSKANNLS [SEC22B] | 4.94 ± 0.16 | 4.89 ± 0.18 |  |  |
| TDIELEIYGMEGIPEKDMDERRRL [ZNF207] | 4.77 ± 0.097 | 4.86 ± 0.22 |  |  |
| RPSRSGAQQLEEEGPMEEEEAQPM [EID1] | 5.66 ± 0.25 | 5.53 ± 0.2 |  |  |
| NYMVQTEDQYIFIHDALLEAVTCG [PTPRD] | 2.25 ± 0.35 | 2.13 ± 0.37 |  |  |
| QYEKMAEKNRKDAEDWFFSKTEEL [KRT17] | 4.68 ± 0.18 | 4.86 ± 0.18 |  |  |
| DFYREDEDEEEEEGGEGEKEGEGE [TRIM55] | 5.57 ± 0.57 | 5.79 ± 0.084 |  |  |
| KSPIAPCSLDKRVILIFHCEFSSE [CDC25B] | 2.73 ± 0.5 | 2.8 ± 0.47 |  |  |
| SHLLVVEPEKLYAMPDPAGPDGHL [ESRRA] | 3.68 ± 0.17 | 3.82 ± 0.27 |  |  |
| AELEQHLEQEQEFQVNKLMKKIKK [CCDC6] | 4.61 ± 0.26 | 5.13 ± 0.38 |  |  |
| EDLKGHVAETSGETIQGFWLLTKI [TPRG1] | 2.37 ± 0.59 | 2.07 ± 0.3 |  |  |
| AGLFSQEQYERNKSSSSSSSSSSS [TMEM40] | 5.16 ± 0.083 | 5.32 ± 0.2 |  |  |
| LASARIIEQDAVVPSEWLSSVYKQ [GMCL1] | 3.31 ± 0.17 | 3.19 ± 0.24 |  |  |
| MCPLYDPNRQLWIELAPLSMPRIN [GAN] | 2.22 ± 0.11 | 2.23 ± 0.28 |  |  |
| VTTYLHKDYNNLWIIKKHNTNSDP [POMT2] | 2.31 ± 0.48 | 2.5 ± 0.23 |  |  |
| STFRTPAVLFTGIVALYIASGLTG [ATL3] | 3.09 ± 0.38 | 3.19 ± 0.24 |  |  |
| WQMIEQIQFIKLFGMAKIDNLLQE [HNF4A] | 2.9 ± 0.7 | 2.33 ± 0.33 |  |  |
| GRPIKPPKKDLEDGEVPQHAGKKG [BRD3] | 5.41 ± 0.37 | 5.55 ± 0.061 |  |  |
| LEAGLPLQVRGYPEEKKEEEGSAN [CHGA] | 5.61 ± 0.35 | 5.79 ± 0.15 |  |  |
| ALATLRVLRGLARPEHPPPAPTGQ [TMEM175] | 3.09 ± 0.22 | 3.09 ± 0.39 |  |  |
| RLLSHDQVAMPYQWEYPYLLSILP [JAGN1] | 2.15 ± 0.19 | 1.99 ± 0.16 |  |  |
| NAVKYVSNIKFCSFHPLQYIGFYG [PDS5B] | 2.89 ± 0.25 | 2.35 ± 0.54 |  |  |

| Sequence | protein stability index [1] | protein stability index [2] | protein stability index [3] | protein stability index [4] |
| --- | --- | --- | --- | --- |
| DALRFTADVRSVLSRNLHQHRLW [CTDNEP1] |  |  | 2.6 ± 0.48 | 2.99 ± 0.26 |
| GRWLRSTRFSGSLDRLRETRVAD [PCDHGC5] |  |  | 2.62 ± 0.48 | 2.84 ± 0.14 |
| EQERRERREQAAAAPFPSPAPASP [TFE3] | 5.52 ± 0.18 | 5.48 ± 0.14 |  |  |
| ISLNMCLLGALVLLGLGVLLFSGG [PBXIP1] | 2.03 ± 0.24 | 2.15 ± 0.2 |  |  |
| VLGADGVCMTFMKQIAGGDVTAKN [INTS3] | 3.51 ± 0.26 | 3.6 ± 0.42 |  |  |
| TTVPEVEPPQDSHSRKTVLIKTIE [PRPH] | 4.58 ± 0.3 | 4.6 ± 0.38 |  |  |
| DLLRNTHFRGVSLNLTRKLAQQLC [DYRK1B] | 2.35 ± 0.48 | 2.22 ± 0.3 |  |  |
| DVYSFAIVIWGVLTQKKPFADEKN [RIPK4] | 2.61 ± 0.77 | 1.86 ± 0.072 |  |  |
| LFLMDLSEGELGGPSEPGGTHPED [RHOBTB2] | 4.45 ± 0.22 | 4.33 ± 0.23 |  |  |
| VNSYYSSPAQQVPKNPALEAFLAQ [TOR1AIP2] | 3.45 ± 0.36 | 3.66 ± 0.25 |  |  |
| LGRPDSLELQRQREARKRALARKQ [RSPH3] | 4.6 ± 0.17 | 4.43 ± 0.19 |  |  |
| TCSECGKGFIQKGNLNIHQRTHTG [ZNF649] | 3.24 ± 0.2 | 3.26 ± 0.25 |  |  |
| LRKGFSCVKNELLPSHPLELSEKN [POMP] | 3.61 ± 0.094 | 3.75 ± 0.24 |  |  |
| GSLHAGGARLVAACSAWLCPGLRL [AUH] |  | 2.43 ± 0.7 |  |  |
| ILILEGGYNLTSISESMAACTRSL [HDAC6] | 2.97 ± 0.61 | 2.63 ± 0.8 |  |  |
| RVYPKCTWLTTPKSTWPRYSKPGL [TCF25] | 2.59 ± 0.23 | 2.46 ± 0.12 |  |  |
| PRSCSSGPAGPYLLSKKGALQSRA [PLEKHN1] | 3.96 ± 0.52 | 4.29 ± 0.39 |  |  |
| LELIEPLIKFQVGLKKLNLHEEEH [VDR] | 2.73 ± 0.21 | 2.9 ± 0.42 |  |  |
| ICQGIRGLWGTTLTENTAENRELY [PKD2L1] | 3.03 ± 0.19 | 3.37 ± 0.21 |  |  |
| AEEGWSPTPKCLRLCFFPFVENGH [CFHR2] | 1.96 ± 0.28 | 2.12 ± 0.32 |  |  |
| SQFLKLKTSVEKANAQIQILTRSW [CD207] | 2.19 ± 0.59 | 2.09 ± 0.29 |  |  |
| AAHLKLTSIEEGYERSFIHKIKHK [IQUB] | 3.18 ± 0.24 | 3.2 ± 0.2 |  |  |

| Sequence | protein stability index [1] | protein stability index [2] | protein stability index [3] | protein stability index [4] |
| --- | --- | --- | --- | --- |
| GYSTHADFVLEMNTAKSTSRVTAF [NLN] | 2.29 ± 0.2 | 2.51 ± 0.12 |  |  |
| LESTLAETEARYSSQLAQMQCLIS [KRT36] | 3.08 ± 0.17 | 3.18 ± 0.32 |  |  |
| VPPRMGSRAGGPTTPLSPTRLSRL [LMNB1] | 3.92 ± 0.57 | 3.85 ± 0.56 |  |  |
| FLPTALLCAYGFFASLRPSEPFLT [SLC19A2] | 3.25 ± 0.56 | 3.26 ± 0.59 |  |  |
| SFHPLQYIGFYGKETTNTCILKCN [PDS5B] | 1.99 ± 0.44 | 2.27 ± 0.35 |  |  |
| AISSVERYDPQTNEWRMVASMSKR [KLHL20] | 3.71 ± 0.22 | 3.99 ± 0.21 |  |  |
| KVLLCHGELRSKSGHKLYIFLFQD [NET1] | 2.62 ± 0.55 | 2.57 ± 0.57 |  |  |
| TRFILSKVPSEAPSPMPTHRSYLG [SLC6A17] | 2.73 ± 0.31 | 2.64 ± 0.26 |  |  |
| RETLKRKVSGNRCASPVTGPGSKR [ESR2] | 3.92 ± 0.32 | 4.1 ± 0.2 |  |  |
| KVEEVSLPEQVDIIISEPMGYMLF [CARM1] | 2.88 ± 0.49 | 2.54 ± 0.35 |  |  |
| QSIIAIIRAMGRLKIDFGDSARAD [GNAI1] | 2.44 ± 0.53 | 2.29 ± 0.93 |  |  |
| NIHENKRTGSLFKIWLVVPSLLEL [KLHDC10] | 3.16 ± 0.49 | 3.15 ± 0.42 |  |  |
| FLMLAVSLTVPLLGAMMLLESPID [APMAP] | 3.52 ± 0.26 | 3.64 ± 0.37 |  |  |
| LHVKRSMGWKKACDELELHQRFLR [ZMYND11] | 2.31 ± 0.12 | 2.55 ± 0.45 |  |  |
| ALEFQPQLVLVAAGFDALQGDPKG [HDAC6] | 2.86 ± 0.28 | 3.11 ± 0.47 |  |  |
| GHPYRGASQFLASASSSTTCCEST [IRX6] | 4.24 ± 0.19 | 4.3 ± 0.22 |  |  |
| SSFIKTEPSSPASLTDSVNHHSPG [ESRRG] | 4.79 ± 0.17 | 4.9 ± 0.18 |  |  |
| SNASEDTRRLRLAHVGMELQLKQE [SCARA5] | 4.29 ± 0.33 | 4.4 ± 0.29 |  |  |
| SGSGNRLDGKKKGVEPSPSPIKPG [UFD1] | 4.61 ± 0.29 | 4.72 ± 0.079 |  |  |
| SLGKQKVFIIRKSLLDELMEVQHF [SOAT2] | 2.58 ± 0.52 | 2.56 ± 0.73 |  |  |
| PVMNGGVQTWTQPRLCYLVKEGGS [PDZK1] | 2.75 ± 0.23 | 3.09 ± 0.27 |  |  |
